B1: Conjugate 8 (antibody, human IgG1, V domains shown)
VH: EQSLVESGGGLVQPGGSLRLSCAASGFSLSSHSLGWVRQAPGKGLEWIGDIRSGGSAYYANWAKGRFTISRDNSKNTLYLQMNSLRAEDTAVYYCTRTNGPSDLTNRLDLWGQGTLVTVSS
VL: QVLTQSPSSLSASVGDRVTINCQASQSLYNNENLAWFQQKPGKVPKRLIYGASTLASGVSSRFSGSGSGTEFTLTISSLQCEDFAIYYCLGEFSCGSADCFAFGGGTKVEIK
notes: humanized antibody #2 (human IgG1) + resiquimod, MC-Val-Cit-PAB linker
B2: Conjugate 22 (antibody, human IgG1, V domains shown)
VH: B1 VH
VL: B1 VL
notes: humanized antibody #2 (human IgG1) + resiquimod derivative, SATA and SMCC linkers
B3: Conjugate 12 (antibody, human IgG1, V domains shown)
VH: B1 VH
VL: B1 VL
notes: humanized antibody #6 (V regions of #2; human IgG1 S239D/I332E) + resiquimod, MC-Val-Cit-PAB linker
B4: Conjugate 26 (antibody, human IgG1, V domains shown)
VH: B1 VH
VL: B1 VL
notes: humanized antibody #6 (V regions of #2; human IgG1 S239D/I332E) + resiquimod derivative, SATA and SMCC linkers
B5: Conjugate 31 (antibody, V domains shown)
VH: AVTLDESGGGLQTPGGGLSLVCKASGFTFSSFDMGWVRQAPGKGLEFVAQINDAGSRTWYATAVKGRATISRDNGQTTVRLQLNNLRAEDTGTYYCTRGSGYVGAGAIDAWGHGTEVIVS
VL: AALTQPSSVSANPGETVKITCSGGSGYYGWYQQQKSPGSAPVTVIYQNDKRPSDIPSRFSGSGSGSTNTLTITGVQAEDEAVYFCGRYDSTDSGIFGAGTTLTVL
notes: mouse chimeric antibody #3 (mouse IgG constant regions) + resiquimod, MC-Val-Cit-PAB linker
B6: Conjugate 35 (antibody, V domains shown)
VH: B5 VH
VL: B5 VL
notes: mouse chimeric antibody #3 (mouse IgG constant regions) + resiquimod derivative, SATA and SMCC linkers
B7: Conjugate 30 (antibody, V domains shown)
VH: B1 VH
VL: B1 VL
notes: mouse chimeric antibody #2 (mouse IgG constant regions) + resiquimod, MC-Val-Cit-PAB linker
B8: Conjugate 34 (antibody, V domains shown)
VH: B1 VH
VL: B1 VL
notes: mouse chimeric antibody #2 (mouse IgG constant regions) + resiquimod derivative, SATA and SMCC linkers
B9: Conjugate 29 (antibody, V domains shown)
VH: AVTLDESGGGLQMSRGGLSLVCKASGFDFSSYQMNWIRQAPGKGLEFVAAINKFGNSTGHGAAVKGRVTISRDNGQSTVRLQLNNLRAEDTAIYFCTKHAYGYCGSGTWCAAGEIDAWGHGTEVIVSS
VL: QAASTQPSSVSANPGETVEITCSGGGSYSYGWFQQKSPGSAPVTVIYYNNKRPSDIPSRFSGSKSGSTGTLTITGVQADDEAVYYCGSGDSTDTAVFGAGTTLTVLG
notes: mouse chimeric antibody #1 (mouse IgG constant regions) + resiquimod, MC-Val-Cit-PAB linker
B10: Conjugate 33 (antibody, V domains shown)
VH: B9 VH
VL: B9 VL
notes: mouse chimeric antibody #1 (mouse IgG constant regions) + resiquimod derivative, SATA and SMCC linkers

Each binder was assayed against T1, CAPRIN-1 on the cell membrane surface of human cancer cells (human, UniProt Q14444 2-709) (assay: BT474 cells, as shown in Example 5).
T1 construct: whole, on cells; also called CAPRIN-1 protein
T1 sequence (looked up): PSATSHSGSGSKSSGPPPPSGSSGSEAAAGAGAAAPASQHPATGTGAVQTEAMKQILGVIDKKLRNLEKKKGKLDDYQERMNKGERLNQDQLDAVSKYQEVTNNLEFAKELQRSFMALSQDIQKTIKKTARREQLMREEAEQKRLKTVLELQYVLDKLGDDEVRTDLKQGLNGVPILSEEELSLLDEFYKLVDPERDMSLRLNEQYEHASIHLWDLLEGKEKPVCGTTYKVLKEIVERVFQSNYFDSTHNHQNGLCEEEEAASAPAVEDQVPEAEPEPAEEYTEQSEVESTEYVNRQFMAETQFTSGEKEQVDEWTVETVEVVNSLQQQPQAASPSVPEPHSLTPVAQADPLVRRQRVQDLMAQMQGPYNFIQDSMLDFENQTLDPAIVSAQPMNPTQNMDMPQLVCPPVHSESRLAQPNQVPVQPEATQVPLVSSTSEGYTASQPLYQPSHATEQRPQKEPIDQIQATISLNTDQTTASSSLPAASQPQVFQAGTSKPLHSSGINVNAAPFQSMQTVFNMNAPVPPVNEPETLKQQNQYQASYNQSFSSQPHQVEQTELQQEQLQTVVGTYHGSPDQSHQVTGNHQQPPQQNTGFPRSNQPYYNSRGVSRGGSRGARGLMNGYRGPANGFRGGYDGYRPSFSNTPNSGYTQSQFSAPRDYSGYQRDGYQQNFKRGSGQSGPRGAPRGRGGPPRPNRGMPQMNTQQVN

Binding result, binds:
B1
B2
B3
B4

These binders were tested against T2, CAPRIN-1 on the cell membrane surface of mouse cancer cells (mouse, UniProt Q60865 2-707) (assay: 4T1 cells).
T2 construct: whole, on cells; also called CAPRIN-1 protein
T2 sequence (looked up): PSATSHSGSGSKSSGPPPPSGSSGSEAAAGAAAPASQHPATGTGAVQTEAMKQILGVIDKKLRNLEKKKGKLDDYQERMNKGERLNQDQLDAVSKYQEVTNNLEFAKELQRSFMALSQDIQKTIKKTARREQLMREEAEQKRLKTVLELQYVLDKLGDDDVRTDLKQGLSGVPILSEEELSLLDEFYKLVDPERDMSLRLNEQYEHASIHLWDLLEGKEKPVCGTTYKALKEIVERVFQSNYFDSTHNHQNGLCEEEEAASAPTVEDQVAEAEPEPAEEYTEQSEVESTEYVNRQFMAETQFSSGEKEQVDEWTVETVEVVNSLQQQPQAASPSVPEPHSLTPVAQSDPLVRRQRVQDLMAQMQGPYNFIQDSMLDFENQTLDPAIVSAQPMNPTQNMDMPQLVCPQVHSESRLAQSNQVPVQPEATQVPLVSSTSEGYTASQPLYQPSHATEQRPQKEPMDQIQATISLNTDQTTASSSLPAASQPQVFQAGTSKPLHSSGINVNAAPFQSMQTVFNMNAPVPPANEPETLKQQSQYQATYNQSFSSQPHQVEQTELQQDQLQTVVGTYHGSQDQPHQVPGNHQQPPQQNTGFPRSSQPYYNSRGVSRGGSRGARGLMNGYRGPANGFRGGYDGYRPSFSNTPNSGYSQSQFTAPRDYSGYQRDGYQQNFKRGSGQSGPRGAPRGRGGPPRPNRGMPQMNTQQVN

Binding result, binds:
B5
B6
B7
B8
B9
B10

From patent US20250249092A1 (TORAY INDUSTRIES, published 2025)
